Target: p65 (UniProt Q04206)
Experiment: pull-down of SFB-tagged RB-N from cells
Conditions: reference: SFB-RB-N wild type; sites S249,T252

“RB N-terminal portion (RB-N) (from UniProt P06400) S249A/T252A” was tested, and the “binding against the reference” value was “weaker”.

From paper PMC8968458
